Starred links: 1 amine or outer side, 2 acyl side, 3 side chain; linkers in the order of their positions; H or OH if unused. Non-standard residues stand in square brackets, D forms with d. Groups on a side chain read outwards from the residue. No end group written: not given here. *: point of attachment. C18 diacid = O=C(O)CCCCCCCCCCCCCCCCC(=O)*; γGlu = O=C(O)[C@H](CCC(=O)[*:2])N[*:1]; αMeL = CC(C)C[C@](C)(N)C(=O)O; Dab = NCC[C@H](N)C(=O)O; Dap = NC[C@H](N)C(=O)O; AEEA = NCCOCCOCC(=O)O; Aib = CC(C)(N)C(=O)O
Key:
Assay in all cases: cell-based or functional assay
hGLP-1R = hGLP-1R (Homo sapiens, UniProt P43220)
[1] = target: T1, human GIP receptor (human) (UniProt P48546)
T1 sequence (looked up): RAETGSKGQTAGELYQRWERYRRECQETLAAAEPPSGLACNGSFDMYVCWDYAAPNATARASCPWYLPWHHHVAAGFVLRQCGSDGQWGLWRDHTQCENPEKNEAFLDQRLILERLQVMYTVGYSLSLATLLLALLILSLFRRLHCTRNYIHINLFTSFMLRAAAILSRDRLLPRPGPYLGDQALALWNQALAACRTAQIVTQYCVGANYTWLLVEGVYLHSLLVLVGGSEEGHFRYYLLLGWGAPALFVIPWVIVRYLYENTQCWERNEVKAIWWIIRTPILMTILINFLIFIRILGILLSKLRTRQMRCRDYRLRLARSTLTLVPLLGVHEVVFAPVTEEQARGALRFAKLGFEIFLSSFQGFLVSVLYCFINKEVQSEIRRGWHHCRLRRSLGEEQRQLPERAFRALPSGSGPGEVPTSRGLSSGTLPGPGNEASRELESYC

[2] = target: human GLP1-R (SNAP-GLP-1R expressed in HEK293 cells) (human) (UniProt P43220)
[3] = target: human glucagon receptor (human) (UniProt P47871)
human glucagon receptor (human), sequence (P47871 26-477): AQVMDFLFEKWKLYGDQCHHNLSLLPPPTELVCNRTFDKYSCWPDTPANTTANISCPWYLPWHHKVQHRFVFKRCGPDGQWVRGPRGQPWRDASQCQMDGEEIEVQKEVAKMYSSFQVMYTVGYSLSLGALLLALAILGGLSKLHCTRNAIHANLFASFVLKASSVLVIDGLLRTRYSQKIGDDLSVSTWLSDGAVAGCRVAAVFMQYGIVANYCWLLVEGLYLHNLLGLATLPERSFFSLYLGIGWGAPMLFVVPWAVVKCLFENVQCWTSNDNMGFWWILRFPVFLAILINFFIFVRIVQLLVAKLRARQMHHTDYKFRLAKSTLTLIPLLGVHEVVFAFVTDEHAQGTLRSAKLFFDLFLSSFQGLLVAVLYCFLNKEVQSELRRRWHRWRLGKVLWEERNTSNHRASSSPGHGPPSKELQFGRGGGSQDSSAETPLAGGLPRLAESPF

hGLP-1R, sequence (P43220 24-463): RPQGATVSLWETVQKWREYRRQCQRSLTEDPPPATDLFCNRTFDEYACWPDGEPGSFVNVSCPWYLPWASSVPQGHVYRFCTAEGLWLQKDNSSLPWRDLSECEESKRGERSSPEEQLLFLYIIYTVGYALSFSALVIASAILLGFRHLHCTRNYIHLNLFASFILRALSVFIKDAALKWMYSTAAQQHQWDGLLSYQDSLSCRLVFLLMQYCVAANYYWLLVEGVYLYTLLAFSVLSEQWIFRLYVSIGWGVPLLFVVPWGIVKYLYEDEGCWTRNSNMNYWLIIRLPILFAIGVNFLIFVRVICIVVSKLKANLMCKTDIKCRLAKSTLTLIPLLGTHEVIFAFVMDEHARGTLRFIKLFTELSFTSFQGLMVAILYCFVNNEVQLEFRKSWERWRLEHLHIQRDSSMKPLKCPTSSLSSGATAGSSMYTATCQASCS
human GLP1-R (SNAP-GLP-1R expressed in HEK293 cells) (human), sequence (P43220 24-463): as above

| Binder | Relative cAMP EC50 (hGLP-1R) [nM] | cAMP Rel EC50, nM (in the presence of 1% HSA) (hGLP-1R) [nM] | Relative cAMP EC50 [1] [nM] | cAMP Rel EC50, nM (in the presence of 1% HSA) [1] [nM] | GLP1R Internalization EC50 [2] [nM] | Internalization % TOP [2] [%] | Relative cAMP EC50 [3] [nM] | cAMP Rel EC50, nM (in the presence of 1% HSA) [3] [nM] | cAMP Rel EC50 (in the presence of 1% HSA) (hGLP-1R) [nM] | cAMP Rel EC50 (in the presence of 1% HSA) [1] [nM] | cAMP Rel EC50 (in the presence of 1% HSA) [3] [nM] |
| --- | --- | --- | --- | --- | --- | --- | --- | --- | --- | --- | --- |
| YXQGTFTSDFSXXLDKKAQXAFIEYLLEGGPSSGAPPPGGSX (synthetic construct; SITE 2: note = 2-Aminoisobutyric Acid; SITE 12: note = L-ornithine; SITE 13: note = alpha-methyl-leucine; SITE 17: note = Lysine is chemically modified through conjugation of the epsilon-amino group of the Lysine side chain with (2-[2-(2-Amino-ethoxy)-ethoxy]-acetyl)-(gamma-Glu)) [Example 66] | 3.86 | 329 | 0.219 | 29.9 | 42.1 | 46.3 | 3.71 | 415 | – | – | – |
| Y[Aib]QGTFTSDFS[Dap][αMeL]LDKK([AEEA-γGlu-C18 diacid])AQ[Aib]AFIEYLLEGGPSSGAPPPGGS-NH2 (ends and bridges not checked) [Example 68] | 3.07 | 612 | 0.46 | 85.1 | 95.2 | 33.8 | 8.55 | 1160 | – | – | – |
| YXQGTFTSDFSKXLDKKAQXAFIEYLLEXGPSSGAPPPSSG (synthetic construct; SITE 2: note = 2-Aminoisobutyric Acid; SITE 13: note = alpha-methyl-leucine; SITE 17: note = Lysine is chemically modified through conjugation of the epsilon-amino group of the Lysine side chain with (2-[2-(2-Amino-ethoxy)-ethoxy]-acetyl)-(gamma-Glu)-CO-(CH2) 18-CO2H; SITE 20: n) [Example 44] | 1.66 | – | 0.116 | – | 51.5 | 65 | 2.46 | – | 591 | 35.9 | 1050 |
| YXQGTFTSDFSXXLDKKAQXAFIEYLLEXGPSSGAPPPGEG (synthetic construct; SITE 2: note = 2-Aminoisobutyric Acid; SITE 12: note = L-ornithine; SITE 13: note = alpha-methyl-leucine; SITE 17: note = Lysine is chemically modified through conjugation of the epsilon-amino group of the Lysine side chain with (2-[2-(2-Amino-ethoxy)-ethoxy]-acetyl)2-(gamma-Glu)) [Example 70] | 2.71 | 620 | 0.102 | 27.4 | 60 | 61.3 | 6.04 | 717 | – | – | – |
| YXQGTFTSDFSKXLDKKAQXAFIEYLLEGGPSSGAPPPSEG (not fully specified; synthetic construct; SITE 2: note = 2-Aminoisobutyric Acid; SITE 13: note = alpha-methyl-leucine; SITE 17: note = Lysine is chemically modified through conjugation of the epsilon-amino group of the Lysine side chain with (2-[2-(2-Amino-ethoxy)-ethoxy]-acetyl)-(gamma-Glu)-CO-(CH2) 16-CO2H; SITE 20: n) [Example 48] | 2.99 | 570 | 0.27 | 46.9 | 44 | 55.2 | 3.8 | 728 | – | – | – |
| YXQGTFTSDFSKXLDKKAQXQFIEYLLEGGPSSGAPPPSEG (synthetic construct; SITE 2: note = 2-Aminoisobutyric Acid; SITE 13: note = alpha-methyl-leucine; SITE 17: note = Lysine is chemically modified through conjugation of the epsilon-amino group of the Lysine side chain with (2-[2-(2-Amino-ethoxy)-ethoxy]-acetyl)-(gamma-Glu)-CO-(CH2) 16-CO2H; SITE 20: n) [Example 51] | 5.8 | 1210 | 0.421 | 98.4 | 89.2 | 55.7 | 5.15 | 856 | – | – | – |
| YXQGTFTSDFSXXLDKKAQXAFIEYLLEGGPSSGAPPPSEG (synthetic construct; SITE 2: note = 2-Aminoisobutyric Acid; SITE 12: note = L-ornithine; SITE 13: note = alpha-methyl-leucine; SITE 17: note = Lysine is chemically modified through conjugation of the epsilon-amino group of the Lysine side chain with (2-[2-(2-Amino-ethoxy)-ethoxy]-acetyl)-(gamma-Glu)) [Example 50] | 4.65 | 1110 | 0.29 | 69.6 | 30.1 | 31.1 | 4.25 | 1040 | – | – | – |
| YXQGTFTSDFSXXLDKKAQXAFIEYLLEXGPSSGAPPPSGS (synthetic construct; SITE 2: note = 2-Aminoisobutyric Acid; SITE 12: note = L-ornithine; SITE 13: note = alpha-methyl-leucine; SITE 17: note = Lysine is chemically modified through conjugation of the epsilon-amino group of the Lysine side chain with (2-[2-(2-Amino-ethoxy)-ethoxy]-acetyl)2-(gamma-Glu)) [Example 75] | 4.4 | 878 | 0.0578 | 16.8 | 61.8 | 51.9 | 4.51 | 1040 | – | – | – |
| YXQGTFTSDFSKXLDKKAQXAFIEYLLEXGPSSGEPPPSEG (Aib, αMeL; acylated Lys; C-terminal amide; synthetic construct; SITE 2: note = 2-Aminoisobutyric Acid; SITE 13: note = alpha-methyl-leucine; SITE 17: note = Lysine is chemically modified through conjugation of the epsilon-amino group of the Lysine side chain with (2-[2-(2-Amino-ethoxy)-ethoxy]-acetyl)-(gamma-Glu)-CO-(CH2) 16-CO2H; SITE 20: n) [Example 46] | 4.04 | – | 0.0947 | – | 41 | 58.1 | 1.53 | – | 601 | 19.6 | 393 |
| YXQGTFTSDFSXXLDKKAQXAFIEYLLEXGPSSGAPPPSEG (synthetic construct; SITE 2: note = 2-Aminoisobutyric Acid; SITE 12: note = L-ornithine; SITE 13: note = alpha-methyl-leucine; SITE 17: note = Lysine is chemically modified through conjugation of the epsilon-amino group of the Lysine side chain with (2-[2-(2-Amino-ethoxy)-ethoxy]-acetyl)2-(gamma-Glu)) [Example 71] | 3.12 | 1010 | 0.105 | 48.1 | 58.8 | 68.6 | 8.74 | 2800 | – | – | – |
| YXQGTFTSDFSXXLDKKAQXAFIEYLLEXGPSSGEPPPGEG (synthetic construct; SITE 2: note = 2-Aminoisobutyric Acid; SITE 12: note = L-ornithine; SITE 13: note = alpha-methyl-leucine; SITE 17: note = Lysine is chemically modified through conjugation of the epsilon-amino group of the Lysine side chain with (2-[2-(2-Amino-ethoxy)-ethoxy]-acetyl)2-(gamma-Glu)) [Example 69] | 3.25 | 279 | 0.136 | 25.6 | 71.9 | 58.2 | 4.75 | 387 | – | – | – |
| YXQGTFTSDFSRXLDKKAQXAFIEYLLEXGPSSGAPPPSGS (synthetic construct; SITE 2: note = 2-Aminoisobutyric Acid; SITE 13: note = alpha-methyl-leucine; SITE 17: note = Lysine is chemically modified through conjugation of the epsilon-amino group of the Lysine side chain with (2-[2-(2-Amino-ethoxy)-ethoxy]-acetyl)-(gamma-Glu)-CO-(CH2) 16-CO2H; SITE 20: n) [Example 79] | 1.8 | 437 | 0.0773 | 14.3 | 56.6 | 45.3 | 3.08 | 903 | – | – | – |
| YXQGTFTSDFSKXLDKKAQXAFIEYLIEGGPSSGAPPPSEG (not fully specified; synthetic construct; SITE 2: note = 2-Aminoisobutyric Acid; SITE 13: note = alpha-methyl-leucine; SITE 17: note = Lysine is chemically modified through conjugation of the epsilon-amino group of the Lysine side chain with (2-[2-(2-Amino-ethoxy)-ethoxy]-acetyl)-(gamma-Glu)-CO-gamma -gamma-(CH2)16-CO2H) [Example 49] | 0.706 | 151 | 0.324 | 44.9 | 37.2 | 53.2 | 5.54 | 1310 | – | – | – |
| YXQGTFTSDFSKXLDKKAQXAFIEYLLEGGPSSGAPPPSEG (synthetic construct; SITE 2: note = 2-Aminoisobutyric Acid; SITE 13: note = alpha-methyl-leucine; SITE 17: note = Lysine is chemically modified through conjugation of the epsilon-amino group of the Lysine side chain with (gamma-Glu)2-CO-(CH2)16-CO2H; SITE 20: note = 2-Aminoisobutyric Acid; SITE 41:) [Example 58] | 2.93 | 20.7 | 0.175 | 3.75 | 56.2 | 78.1 | 4.86 | 115 | – | – | – |
| YXQGTFTSDFSXXLDKKAQXAFIEYLLEGGPSSGAPPPGGS (synthetic construct; SITE 2: note = 2-Aminoisobutyric Acid; SITE 12: note = L-ornithine; SITE 13: note = alpha-methyl-leucine; SITE 17: note = Lysine is chemically modified through conjugation of the epsilon-amino group of the Lysine side chain with (2-[2-(2-Amino-ethoxy)-ethoxy]-acetyl)-(gamma-Glu)) [Example 62] | 2.72 | 299 | 0.146 | 31.2 | 40.3 | 44.9 | 3.96 | 396 | – | – | – |
| YXQGTFTSDFSRXLDKKAQXAFIEYLLEXGPSSGAPPPSGS (synthetic construct; SITE 2: note = 2-Aminoisobutyric Acid; SITE 13: note = alpha-methyl-leucine; SITE 17: note = Lysine is chemically modified through conjugation of the epsilon-amino group of the Lysine side chain with (2-[2-(2-Amino-ethoxy)-ethoxy]-acetyl)2-(gamma-Glu)-CO-(CH2 )16-CO2H; SITE 20:) [Example 80] | 2.55 | 627 | 0.0593 | 10.1 | 35.8 | 48.2 | 7.44 | 1190 | – | – | – |
| YXQGTFTSDFSKXLDKKAQXAFIEYLLEXGPSSGAPPPGEG (synthetic construct; SITE 2: note = 2-Aminoisobutyric Acid; SITE 13: note = alpha-methyl-leucine; SITE 17: note = Lysine is chemically modified through conjugation of the epsilon-amino group of the Lysine side chain with (2-[2-(2-Amino-ethoxy)-ethoxy]-acetyl)2-(gamma-Glu)-CO-(CH2 )18-CO2H; SITE 20:) [Example 55] | 1.96 | 479 | 0.0856 | 27.8 | 79.5 | 70.7 | 5.2 | 960 | – | – | – |
| YXQGTFTSDFSKXLDKKAQXAFIEYLLEXGPSSGAPPPSEG (synthetic construct; SITE 2: note = 2-Aminoisobutyric Acid; SITE 13: note = alpha-methyl-leucine; SITE 17: note = Lysine is chemically modified through conjugation of the epsilon-amino group of the Lysine side chain with (2-[2-(2-Amino-ethoxy)-ethoxy]-acetyl)-(gamma-Glu)-CO-(CH2) 16-CO2H; SITE 20: n) [Example 57] | 3.06 | 42.7 | 0.098 | 3.78 | 76.6 | 73.1 | 4.37 | 113 | – | – | – |
| YXQGTFTSDFSXXLDKKAQXAFIEWLLEGGPSSGAPPPSGS (synthetic construct; SITE 2: note = 2-Aminoisobutyric Acid; SITE 12: note = L-ornithine; SITE 13: note = alpha-methyl-leucine; SITE 17: note = Lysine is chemically modified through conjugation of the epsilon-amino group of the Lysine side chain with (2-[2-(2-Amino-ethoxy)-ethoxy]-acetyl)-(gamma-Glu)) [Example 78] | 1.93 | 560 | 0.228 | 78.4 | 78.2 | 55 | 7.06 | 2640 | – | – | – |
| YXQGTFTSDFSKXLDKKAQXAFIEYLLEXGPSSGAPPPSGS (synthetic construct; SITE 2: note = 2-Aminoisobutyric Acid; SITE 13: note = alpha-methyl-leucine; SITE 17: note = Lysine is chemically modified through conjugation of the epsilon-amino group of the Lysine side chain with (2-[2-(2-Amino-ethoxy)-ethoxy]-acetyl)-(gamma-Glu)-CO-(CH2) 18-CO2H; SITE 20: n) [Example 45] | 1.52 | – | 0.112 | – | 52.6 | 62.1 | 2.08 | – | 493 | 33.4 | 879 |
| Y[Aib]QGTFTSDFS[Dab][αMeL]LDKK([AEEA-γGlu-C18 diacid])AQ[Aib]AFIEYLLEGGPSSGAPPPGGS-NH2 [Example 67] | 4.07 | 683 | 0.34 | 73.3 | 50.9 | 31.1 | 3.7 | 781 | – | – | – |
